The text below walks through data of patent publication US20240050583A1 (HARBOUR BIOMED SHANGHAI, published 2024).

One test concerns the target T1, human 5T4 (human, UniProt Q13641 32-420).
T1 construct: whole, on cells; also called trophoblast glycoprotein; TPBG
T1 sequence (looked up): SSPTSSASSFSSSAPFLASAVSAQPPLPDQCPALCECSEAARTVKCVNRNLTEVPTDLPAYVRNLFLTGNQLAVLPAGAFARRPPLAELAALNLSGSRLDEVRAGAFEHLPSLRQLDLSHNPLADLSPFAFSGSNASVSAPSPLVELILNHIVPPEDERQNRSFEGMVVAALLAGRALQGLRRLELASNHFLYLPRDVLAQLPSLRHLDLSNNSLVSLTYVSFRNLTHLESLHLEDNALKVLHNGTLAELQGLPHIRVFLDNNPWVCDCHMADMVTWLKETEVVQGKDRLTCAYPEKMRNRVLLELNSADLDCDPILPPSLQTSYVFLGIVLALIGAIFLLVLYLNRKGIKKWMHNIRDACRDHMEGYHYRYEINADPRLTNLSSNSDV
Description: flow cytometry (FACS) on HCC1954 cells highly expressing human 5T4. The procedure: The binding ability of the antibody molecules to a human breast cancer cell strain HCC1954 (ATCC, CRL-2338) highly expressing human 5T4 was determined by flow cytometry FACS. Specifically, the cell density was adjusted to 1×10⁶ cells/mL. The cells were seeded in a 96-well V-bottom plate (Corning, #3894) at 100 μL/well, followed by the addition of test antibodies diluted in a 3-fold gradient at a concentration that was 2 times the final concentration, each at 100 μL/well. The cells were incubated at 4° C. for 1 h away from light. Thereafter, the cells in each well were rinsed twice with 100 μL of pre-cooled PBS, and centrifuged at 500 g at 4° C. for 5 min, and then the supernatant was discarded. Thereafter, a fluorescent secondary antibody (Alexa Fluor 488-conjugated AffiniPure Goat Anti-Human IgG, Fcγ Fragment Specific, Jackson ImmunoResearch Inc., #109-545-098, diluted in a 1:500 ratio) was added at 100 μL/well, and the plate was incubated at 4° C. for 30 min away from light. The cells in each well were then rinsed twice with 100 μL of pre-cooled PBS and centrifuged at 500 g at 4° C. for 5 min, and then the supernatant was discarded. Finally, the cells in each well were resuspended in 200 μL of pre-cooled PBS. Fluorescence signal values were read using a BD FACS CANTOII flow cytometer, and the data were processed and analyzed using FlowJo v10 (FlowJo, LLC) software.

For test [1], the target named is T2, human BCMA (human, UniProt Q02223 1-184).
T2 construct: whole, on cells; also called hBCMA; tumor necrosis factor receptor superfamily member 17
T2 sequence (looked up): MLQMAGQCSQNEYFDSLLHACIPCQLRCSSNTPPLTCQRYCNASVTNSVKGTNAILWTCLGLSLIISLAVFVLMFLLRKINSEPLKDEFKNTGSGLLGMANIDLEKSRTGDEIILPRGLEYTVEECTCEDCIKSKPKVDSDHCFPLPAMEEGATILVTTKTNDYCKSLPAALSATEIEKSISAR
Description: flow cytometry (FACS) on HEK293T-hBCMA and NCI-H929 cells, legend of FIG. 32.

For test [2], the target named is T2, human BCMA. Description: flow cytometry (FACS) on HEK293T-hBCMA cells.
Another test deals with T3, human CTLA4 (human, UniProt P16410 36-223).
T3 construct: whole, on cells; HEK293T cell strain HEK293/hCTLA4 highly expressing human CTLA4 (constructed by Harbour BioMed); also called hCTLA4; CD152
T3 sequence (looked up): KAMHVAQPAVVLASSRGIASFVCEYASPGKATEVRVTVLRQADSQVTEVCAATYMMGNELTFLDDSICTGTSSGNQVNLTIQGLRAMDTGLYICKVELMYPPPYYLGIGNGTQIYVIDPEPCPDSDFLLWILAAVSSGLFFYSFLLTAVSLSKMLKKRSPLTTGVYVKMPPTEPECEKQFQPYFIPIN
The test is described as follows: flow cytometry (FACS) on HEK293/hCTLA4 cells. The procedure:
The binding ability of the antibody molecules to an HEK293T cell strain HEK293/hCTLA4 (constructed by Harbour BioMed) highly expressing human CTLA4 and other cells was determined by flow cytometry FACS. Specifically, the HEK293/hCTLA4 cells were digested and resuspended in a DMEM medium, with the cell density adjusted to 1×10⁶ cells/mL. HEK293 cells not expressing CTLA4 were used as a negative control. Thereafter, the cells were seeded in a 96-well V-bottom plate (Corning, #3894) at 100 μL/well and centrifuged at 4° C. for 5 min, and the supernatant was discarded. Then, the serially diluted antibody molecules were added to the 96-well plate at 100 μL/well, and the mixtures were well mixed. […]
Then, the cells in each well were rinsed twice with 100 μL of pre-cooled FACS buffer (PBS buffer containing 0.5% BSA) and centrifuged at 500 g at 4° C. for 5 min, and then the supernatant was discarded. […] Fluorescence signal values were read using a BD FACS CANTOII flow cytometer, and the data were processed and analyzed using FlowJo v10 (FlowJo, LLC) software. The data were processed and analyzed by plotting using GraphPad Prism 8 software, and binding curves of the antibodies to target cells, EC₅₀ values and other parameters were obtained through four-parameter nonlinear fitting.

B1: HCAb PR004432 (antibody, human IgG1, V domains shown)
VH: EVQLQQSGPGLVKPSQTLSLTCAISGDSVSNNYAAWNWIRQSPSRGLEWLGRTYYRSKWYNDYAVSVKSRITINPDTSKNQFSLQLNRVTPEDTAVYYCARDNYYGSGSPPVDALDIWGQGTMVTVSS
notes: Fully human heavy-chain-only antibody with human IgG1 hinge and Fc; also called 1041P014H2; anti-5T4 HCAb antibody PR004432
Consider B1, for which the binding result with human 5T4 is “binds”.

B2: PR004432-ADC (antibody, human IgG1, V domains shown)
VH: EVQLQQSGPGLVKPSQTLSLTCAISGDSVSNNYAAWNWIRQSPSRGLEWLGRTYYRSKWYNDYAVSVKSRITINPDTSKNQFSLQLNRVTPEDTAVYYCARDNYYGSGSPPVDALDIWGQGTMVTVSS
modifications: mc-vc-PAB-MMAE coupled to Cys-220 (Eu numbering; 97.12% of the site coupled)
notes: Purified coupling product of HCAb PR004432 with mc-vc-PAB-MMAE, main component DAR=2; also called coupling product PR004432-ADC
Take B2: in the test with human 5T4, the binding result is on record as “binds”.

B3: PR004433-ADC (antibody, human IgG1, V domains shown)
VH: EVQLVETGGGLIQPGGSLRLSCAASGFTVSDSYMTWVRQAPGKGLEWVSVIFSGGRTYYSDSVKGRFTISRDNAKNTLYLQMNSLRAEDTALYYCARRNYDDTRGTDVFDIWGQGTMVTVSS
modifications: mc-vc-PAB-MMAE coupled to Cys-220 (Eu numbering; 98% of the site coupled)
notes: Coupling product of HCAb PR004433 with mc-vc-PAB-MMAE, main component DAR=2; also called coupling product PR004433-ADC
On to B3, for which, in the test with human BCMA [1], the binding result is “binds”.

B4: PR001046-ADC (antibody, human IgG1, V domains shown)
VH: EVQLVETGGGLIQPGGSLRLSCAASGFTVSDNYMTWVRQAPGKGLEWVSVIFSGGNTYYADSVKGRFTISRDNAKNTLYLQMNSLRAEDTALYYCARRNYDDTRGTDVFDIWGQGTMVTVSS
modifications: mc-vc-PAB-MMAE coupled mainly to the cysteine at site 127 (Cys-220 according to Eu numbering)
notes: Purified coupling product of HCAb PR001046 with mc-vc-PAB-MMAE, main component DAR=2; also called coupling product PR001046-ADC
With B4, the binding result with human BCMA [2] is reported as “binds”.

B5: HCAb PR001046 (antibody, human IgG1, V domains shown)
VH: EVQLVETGGGLIQPGGSLRLSCAASGFTVSDNYMTWVRQAPGKGLEWVSVIFSGGNTYYADSVKGRFTISRDNAKNTLYLQMNSLRAEDTALYYCARRNYDDTRGTDVFDIWGQGTMVTVSS
notes: Fully human heavy-chain-only antibody with human IgG1 hinge and Fc; also called 1005P63B7; anti-BCMA HCAb antibody PR001046
For the molecule B5, the binding result in the test with human BCMA [2] is “binds”.

B6: HCAb PR000020 (antibody, human IgG1, V domains shown)
VH: EVQLVETGGGLIQPGGSLRLSCAASGLNVSRHYLSWVRQAPGKGLEWVAVIYSGGGIEYVDSVKGRFTISRDNANNTLYLQMRSLRTEDSAVYYCARAIPRPHGSDIWGQGTMVTVSS
notes: Fully human heavy-chain-only antibody (VH, human IgG1 hinge, CH2, CH3), dimer of two heavy chains, no light chain; also called CL24; anti-CTLA4 HCAb antibody PR000020
Regarding B6, the binding result with human CTLA4 was “binds”.

B7: PR000020-ADC (antibody, human IgG1, V domains shown)
VH: EVQLVETGGGLIQPGGSLRLSCAASGLNVSRHYLSWVRQAPGKGLEWVAVIYSGGGIEYVDSVKGRFTISRDNANNTLYLQMRSLRTEDSAVYYCARAIPRPHGSDIWGQGTMVTVSS
modifications: mc-vc-PAB-MMAE coupled to C124 (Cys-220 according to Eu numbering)
notes: Purified coupling product of HCAb PR000020 with mc-vc-PAB-MMAE, main component DAR=2; also called coupling product PR000020-ADC
Consider B7, for which the binding result in the test with human CTLA4 is given as “binds”.
